These results are taken from patent US20220348688A1 (PROMAB BIOTECHNOLOGIES, published 2022).

Test [1] deals with T1, CD3 epsilon chain (CD3e) (human, UniProt P07766 23-207).
T1 construct: whole, on cells; also called CD3 antigen
The test can be described thus: FACS on CD3-positive T cells.
From the text: The allophycocyanin (APC)-labeled anti-CD3 (eBioscience, San Diego, Calif.) antibody was used for FACS analysis using FACSCalibur (BD Biosciences).
CD3-positive T cells were used for testing binding to CD3.

The target of test [2] is T1, CD3 epsilon chain (CD3e). Description: FACS. In general terms: Flow cytometry measures light scatter and fluorescence of single cells or particles in a stream.

T1 sequence (P07766 23-207): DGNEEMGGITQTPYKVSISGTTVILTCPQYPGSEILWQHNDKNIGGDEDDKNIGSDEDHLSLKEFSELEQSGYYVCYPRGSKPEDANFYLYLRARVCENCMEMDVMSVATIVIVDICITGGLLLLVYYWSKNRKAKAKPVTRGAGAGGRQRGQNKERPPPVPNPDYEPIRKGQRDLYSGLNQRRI

B1: PLAP h4-CD3e bispecific antibody (FIG. 1A structure) (bispecific antibody)
light: DIQMTQSPSSLSASVGDRVTITCRASENIYSYVAWYQQKPGKAPKLLIYNAKSLASGVPSRFSGSGSGTDFTLTISSLQPEDFATYYCQHHYVSPWTFGGGTKLEIKRTVAAPSVFIFPPSDEQLKSGTASVVCLLNNFYPREAKVQWKVDNALQSGNSQESVTEQDSKDSTYSLSSTLTLSKADYEKHKVYACEVTHQGLSSPVTKSFNRGEC
chain: QAVVTQEPSLTVSPGGTVTLTCGSSTGAVTTSNYANWVQEKPGQAFRGLIGGTNKRAPGTPARFSGSLLGGKAALTLSGAQPEDEAEYYCALWYSNLWVFGGGTKLTVLSSASTKGPSVFPLAPSSKSTSGGTAALGCLVKDYFPEPVTVSWNSGALTSGVHTFPAVLQSSGLYSLSSVVTVPSSSLGTQTYICNVNHKPSNTKVDKKVEPKSC
heavy 1: not shown
heavy 2: QVQLQESGPGLVKPSETLSLTCTVSGGSITSYGVSWIRQPPGKGLEWIGVIWEDGSTNYHSALISRVTISVDTSKNQFSLKLSSVTAADTAVYYCARPHYGSSYVGAMEYWGAGTTVTVSSTKGPSVFPLAPSSKSTSGGTAALGCLVKDYFPEPVTVSWNSGALTSGVHTFPAVLQSSGLYSLSSVVTVPSSSLGTQTYICNVNHKPSNTKVDKKVEPKSCDKTHTCPPCPAPEAAGGPSVFLFPPKPKDTLMISRTPEVTCVVVDVSHEDPEVKFNWYVDGVEVHNAKTKPREEQYNSTYRVVSVLTVLHQDWLNGKEYKCKVSNKALGAPIEKTISKAKGQPREPQVCTLPPSRDELTKNQVSLSCAVKGFYPSDIAVEWESNGQPENNYKTTPPVLDSDGSFFLVSKLTVDKSRWQQGNVFSCSVMHEALHNHYTQKSLSLSPGK
notes: Two PLAP Fab arms and one CD3e crossover Fab; knob-into-hole human IgG Fc with P329G, L234A, L235A; also called PLAP h4-CD3 antibody; PLAP h4-Cd3 antibody
Turning to B1, in the test with CD3 epsilon chain (CD3e) [1], the binding result was “binds”.

B2: PLAP h4-CD3e bivalent antibody (PBM0015), FIG. 1B structure (bispecific antibody)
light: DIQMTQSPSSLSASVGDRVTITCRASENIYSYVAWYQQKPGKAPKLLIYNAKSLASGVPSRFSGSGSGTDFTLTISSLQPEDFATYYCQHHYVSPWTFGGGTKLEIKRTVAAPSVFIFPPSDEQLKSGTASVVCLLNNFYPREAKVQWKVDNALQSGNSQESVTEQDSKDSTYSLSSTLTLSKADYEKHKVYACEVTHQGLSSPVTKSFNRGEC
heavy 1: not shown
heavy 2: QVQLQESGPGLVKPSETLSLTCTVSGGSITSYGVSWIRQPPGKGLEWIGVIWEDGSTNYHSALISRVTISVDTSKNQFSLKLSSVTAADTAVYYCARPHYGSSYVGAMEYWGAGTTVTVSSTKGPSVFPLAPSSKSTSGGTAALGCLVKDYFPEPVTVSWNSGALTSGVHTFPAVLQSSGLYSLSSVVTVPSSSLGTQTYICNVNHKPSNTKVDKKVEPKSCDKTHTCPPCPAPEAAGGPSVFLFPPKPKDTLMISRTPEVTCVVVDVSHEDPEVKFNWYVDGVEVHNAKTKPREEQYNSTYRVVSVLTVLHQDWLNGKEYKCKVSNKALGAPIEKTISKAKGQPREPQVCTLPPSRDELTKNQVSLSCAVKGFYPSDIAVEWESNGQPENNYKTTPPVLDSDGSFFLVSKLTVDKSRWQQGNVFSCSVMHEALHNHYTQKSLSLSPGK
notes: Two PLAP Fab arms; the CD3 scFv is attached to the C-terminal end of CH3 of the knob chain; also called bivalent PLAP h4-CD3 Ab; bivalent humanized PLAPh4-CD3 antibody
In the case of B2, the binding result with CD3 epsilon chain (CD3e) [2] is “binds”.
